The Kd is the free concentration of one partner at which half of the binding sites on the other are occupied at equilibrium, for simple one-to-one binding.

Two molecules from US20250170238A1 (LANIER BIOTHERAPEUTICS, published 2025) can be followed below.

The target of experiment [1] is T1, Human IL-25 (made from human (HEK) sources) (human, UniProt Q9H293 33-177).
T1 sequence (looked up): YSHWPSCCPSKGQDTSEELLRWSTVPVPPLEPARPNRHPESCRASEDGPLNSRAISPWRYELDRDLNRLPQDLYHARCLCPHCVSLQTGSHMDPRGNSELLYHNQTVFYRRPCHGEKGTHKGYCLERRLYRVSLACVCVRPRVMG
Kind of experiment: cell-based or functional assay.

For experiment [2], the target named is T2, mouse IL-25 (made from mouse (NSO) source) (mouse, UniProt Q8VHH8 17-169).
T2 sequence (looked up): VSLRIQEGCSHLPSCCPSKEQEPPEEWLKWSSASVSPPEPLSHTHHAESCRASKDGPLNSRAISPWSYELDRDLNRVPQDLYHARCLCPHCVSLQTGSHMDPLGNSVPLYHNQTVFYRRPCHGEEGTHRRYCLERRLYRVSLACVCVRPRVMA
Kind of experiment: cell-based or functional assay.

For experiment [3], the target named is T2, mouse IL-25 (made from mouse (NSO) …). Kind of experiment: binding affinity, method not stated; mouse IL-25 made in NSO.
Experiment [4] addresses T1, Human IL-25 (made from human (HEK) …). Nature of the experiment: binding affinity, method not stated; human IL-25 made in HEK.
In experiment [5] the target is T3, Cyno Monkey IL-25 (HEK) (cynomolgus monkey, UniProt G7P9V9 33-176).
T3 construct: also called Cyno Monkey (HEK)
T3 sequence: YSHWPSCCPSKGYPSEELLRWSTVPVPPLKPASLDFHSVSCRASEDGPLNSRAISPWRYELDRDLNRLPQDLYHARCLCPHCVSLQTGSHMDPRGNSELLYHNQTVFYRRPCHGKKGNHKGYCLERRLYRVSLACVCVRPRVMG
Kind of experiment: binding affinity, method not stated; cyno monkey IL-25 made in HEK.

B1: humanized anti-IL-25 antibody LNR125.38 (antibody, V domains shown)
VH: QVTLKESGPTLVKPTQTLTLTCTFSGFSLSTSGMGVGWIRQPPGKALEWLAHIWWDDVKRYNPSLKSRLTITKDTSGSQVVLTMTNMDPVDTATYYCARTLPHFHDYWGQGTTLTVSS
VL: DIQMTQSPSTLSASVGDRVTITCRASSSVSYMYWYQQKPGKAPKPLIYRTSNLASGVPSRFSGSGSGTEYTLTISSLQPDDFATYYCKQYHSYPPTWTFGGGTKVEIKR
As for B1, the “Potency IC50 in HT29 cell assay” value was 100 µg/mL in experiment [1] and 780 µg/mL in experiment [2]. Further, the figures for the Kd in experiment [3], in experiment [4] and in experiment [5] were 0.096 nM, 0.051 nM and 0.235 nM, respectively.

B2: anti-IL-25 antibody LNR125 (antibody, V domains shown)
VH: QVTLKVSGPGILQPSQTLSLTCSFSGFSLNTSGMGVGWIRQPSGKGLEWLAHIWWDDVKRYNPALKSRLTISKDTSGSQVFLKIASVDTADTATYYCARTLPHFFDYWGQGTTLTVSS
VL: DIQMTQSPAIMSASPGEKVTISCRASSSVSYMYWYQQKSGSSPKPWIYRTSNLASGVPARFSGSGSGTSYSLTISSMEAEDAATYYCKQYHSYPPTWTFGGGTKLEIKR
Regarding B2, the “Potency IC50 in HT29 cell assay” value in experiment [1] stood at 120 µg/mL; in experiment [2], 130 µg/mL. Besides, the results for the dissociation constant (Kd) in experiment [3], in experiment [4] and in experiment [5] were 0.168 nM, 0.128 nM and 0.17 nM, respectively.
